Assay results: the supplement of paper PMC5998384

What was measured:
HeLa Kyoto [1] = assay: melting temperature (median over replicates), in situ; higher = more thermally stable
HeLa Kyoto [2] = assay: thermal stability score vs G1/S (z-score of summed log2 fold changes over temperatures); higher = more thermally stable than in G1/S
HeLa Kyoto [3] = assay: solubility change mitosis vs G1/S (difference of NP-40 vs SDS log2 ratios) (log2 ratio difference); higher = more soluble in mitosis
HeLa Kyoto [4] = assay: solubility in G1/S (NP-40 vs SDS abundance) (log2 ratio); higher = more soluble; conditions: cell cycle stage: G1/S
[5] = cell cycle stage: early G1 (4.5 h after nocodazole release)
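Wherever melting temperature (median over replicates), in situ is given: HeLa Kyoto cells synchronized by double thymidine or nocodazole block, proteins quantified by TMT10plex mass spectrometry, three independent biological replicates.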
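Wherever solubility change mitosis vs G1/S (difference of NP-40 vs SDS log2 ratios) is given: synchronized HeLa Kyoto cells (double thymidine block for G1/S, nocodazole release for mitosis), protein amounts in NP-40 versus SDS lysates quantified by mass spectrometry, three biological replicates.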
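Wherever solubility in G1/S (NP-40 vs SDS abundance) is given: HeLa Kyoto cells arrested at G1/S by double thymidine block, proteins quantified by TMT10plex mass spectrometry in mild NP-40 versus SDS extracts, three biological replicates.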
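Wherever thermal stability score vs G1/S (z-score of summed log2 fold changes over temperatures) is given: synchronized HeLa Kyoto cells, proteins quantified by TMT10plex mass spectrometry, three biological replicates, mitosis taken 0.5 h after nocodazole release, G1/S directly after double thymidine block.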

Substance | melting temperature (HeLa Kyoto [1]; cell cycle stage: mitosis) [°C] | thermal stability score (HeLa Kyoto [2]; [5]) | thermal stability score (HeLa Kyoto [2]; cell cycle stage: mitosis) | solubility change mitosis (log2) (HeLa Kyoto [3]) | solubility in G1/S (log2) (HeLa Kyoto [4]) | melting temperature (HeLa Kyoto [1]; cell cycle stage: G1/S) [°C]
MGSRIKQNPETTFEVYVEVAYPRTGGTLSDPEVQRQFPEDYSDQEVLQTLTKFCFPFYVDSLTVSQVGQNFTFVLTDIDSKQRFGFCRLSSGAKSCFCILSYLPWFEVFYKLLNILADYTTKRQENQWNELLETLHKLPIPDPGVSVHLSVHSYFTVPDTRELPSIPENRNLTEYFVAVDVNNMLHLYASMLYERRILIICSKLSTLTACIHGSAAMLYPMYWQHVYIPVLPPHLLDYCCAPMPYLIGIHLSLMEKVRNMALDDVVILNVDTNTLETPFDDLQSLPNDVISSLKNRLKKVSTTTGDGVARAFLKAQAAFFGSYRNALKIEPEEPITFCEEAFVSHYRSGAMRQFLQNATQLQLFKQFIDGRLDLLNSGEGFSDVFEEEINMGEYAGSDKLYHQWLSTVRKGSGAILNTVKTKANPAMKTVYKFAKDHAKMGIKEVKNRLKQKDIAENGCAPTPEEQLPKTAPSPLVEAKDPKLREDRRPITVHFGQVRPPRPHVVKRPKSNIAVEGRRTSVPSPEQPQPYRTLRESDSAEGDEAESPEQQVRKSTGPVPAPPDRAASIDLLEDVFSNLDMEAALQPLGQAKSLEDLRAPKDLREQPGTFDYQRLDLGGSERSRGVTVALKLTHPYNKLWSLGQDDMAIPSKPPAASPEKPSALLGNSLALPRRPQNRDSILNPSDKEEVPTPTLGSITIPRPQGRKTPELGIVPPPPIPRPAKLQAAGAALGDVSERLQTDRDRRAALSPGLLPGVVPQGPTELLQPLSPGPGAAGTSSDALLALLDPLSTAWSGSTLPSRPATPNVATPFTPQFSFPPAGTPTPFPQPPLNPFVPSMPAAPPTLPLVSTPAGPFGAPPASLGPAFASGLLLSSAGFCAPHRSQPNLSALSMPNLFGQMPMGTHTSPLQPLGPPAVAPSRIRTLPLARSSARAAETKQGLALRPGDPPLLPPRPPQGLEPTLQPSAPQQARDPFEDLLQKTKQDVSPSPALAPAPDSVEQLRKQWETFE [DENND1A] | 53.6 | 0.0881 | 1.02 | -0.0536 | 0.079 | 
MGSSATEIEELENTTFKYLTGEQTEKMWQRLKGILRCLVKQLERGDVNVVDLKKNIEYAASVLEAVYIDETRRLLDTEDELSDIQTDSVPSEVRDWLASTFTRKMGMTKKKPEEKPKFRSIVHAVQAGIFVERMYRKTYHMVGLAYPAAVIVTLKDVDKWSFDVFALNEASGEHSLKFMIYELFTRYDLINRFKIPVSCLITFAEALEVGYSKYKNPYHNLIHAADVTQTVHYIMLHTGIMHWLTELEILAMVFAAAIHDYEHTGTTNNFHIQTRSDVAILYNDRSVLENHHVSAAYRLMQEEEMNILINLSKDDWRDLRNLVIEMVLSTDMSGHFQQIKNIRNSLQQPEGIDRAKTMSLILHAADISHPAKSWKLHYRWTMALMEEFFLQGDKEAELGLPFSPLCDRKSTMVAQSQIGFIDFIVEPTFSLLTDSTEKIVIPLIEEASKAETSSYVASSSTTIVGLHIADALRRSNTKGSMSDGSYSPDYSLAAVDLKSFKNNLVDIIQQNKERWKELAAQEARTSSQKCEFIHQ [PDE1A] | 54.1 | 1.43 | 2.27 | -0.0985 | -0.162 | 55.2
MGST3 | 55.7 | -2.44 | -4.93 | 0.0779 | -0.272 | 56.3
MGSVLGLCSMASWIPCLCGSAPCLLCRCCPSGNNSTVTRLIYALFLLVGVCVACVMLIPGMEEQLNKIPGFCENEKGVVPCNILVGYKAVYRLCFGLAMFYLLLSLLMIKVKSSSDPRAAVHNGFWFFKFAAAIAIIIGAFFIPEGTFTTVWFYVGMAGAFCFILIQLVLLIDFAHSWNESWVEKMEEGNSRCWYAALLSATALNYLLSLVAIVLFFVYYTHPASCSENKAFISVNMLLCVGASVMSILPKIQESQPRSGLLQSSVITVYTMYLTWSAMTNEPETNCNPSLLSIIGYNTTSTVPKEGQSVQWWHAQGIIGLILFLLCVFYSSIRTSNNSQVNKLTLTSDESTLIEDGGARSDGSLEDGDDVHRAVDNERDGVTYSYSFFHFMLFLASLYIMMTLTNWYRYEPSREMKSQWTAVWVKISSSWIGIVLYVWTLVAPLVLTNRDFD [SERINC1] | 60.6 | -4.14 | -5.22 | -0.141 | -0.167 | 56.2
MGTARWLALGSLFALAGLLEGRLVGEEEAGFGECDKFFYAGTPPAGLAADSHVKICQRAEGAERFATLYSTRDRIPVYSAFRAPRPAPGGAEQRWLVEPQIDDPNSNLEEAINEAEAITSVNSLGSKQALNTDYLDSDYQRGQLYPFSLSSDVQVATFTLTNSAPMTQSFQERWYVNLHSLMDRALTPQCGSGEDLYILTGTVPSDYRVKDKVAVPEFVWLAACCAVPGGGWAMGFVKHTRDSDIIEDVMVKDLQKLLPFNPQLFQNNCGETEQDTEKMKKILEVVNQIQDEERMVQSQKSSSPLSSTRSKRSTLLPPEASEGSSSFLGKLMGFIATPFIKLFQLIYYLVVAILKNIVYFLWCVTKQVINGIESCLYRLGSATISYFMAIGEELVSIPWKVLKVVAKVIRALLRILCCLLKAICRVLSIPVRVLVDVATFPVYTMGAIPIVCKDIALGLGGTVSLLFDTAFGTLGGLFQVVFSVCKRIGYKVTFDNSGEL [ENDOD1] | 56.6 | 1.24 | -2.33 | -0.0882 | -0.0976 | 57.6
MGTDSRAAKALLARARTLHLQTGNLLNWGRLRKKCPSTHSEELHDCIQKTLNEWSSQINPDLVREFPDVLECTVSHAVEKINPDEREEMKVSAKLFIVESNSSSSTRSAVDMACSVLGVAQLDSVIIASPPIEDGVNLSLEHLQPYWEELENLVQSKKIVAIGTSDLDKTQLEQLYQWAQVKPNSNQVNLASCCVMPPDLTAFAKQFDIQLLTHNDPKELLSEASFQEALQESIPDIQAHEWVPLWLLRYSVIVKSRGIIKSKGYILQAKRRGS [GCLM] | 49 | 0.373 | 1.08 | -0.0843 | 0.229 | 48.3
MGTKAQVERKLLCLFILAILLCSLALGSVTVHSSEPEVRIPENNPVKLSCAYSGFSSPRVEWKFDQGDTTRLVCYNNKITASYEDRVTFLPTGITFKSVTREDTGTYTCMVSEEGGNSYGEVKVKLIVLVPPSKPTVNIPSSATIGNRAVLTCSEQDGSPPSEYTWFKDGIVMPTNPKSTRAFSNSSYVLNPTTGELVFDPLSASDTGEYSCEARNGYGTPMTSNAVRMEAVERNVGVIVAAVLVTLILLGILVFGIWFAYSRGHFDRTKKGTSSKKVIYSQPSARSEGEFKQTSSFLV [F11R] | 59.5 | -2.07 | -2.09 | -0.139 | 0.284 | 58.9
MGTPASGRKRTPVKDRFSAEDEALSNIAREAEARLAAKRAARAEARDIRMRELERQQKEYSLHSFDRKWGQIQKWLEDSERARYSHRSSHHRPYLGVEDALSIRSVGSHRYDMFKDRSSRLSSLNHSYSHSHGMKKRSSDSHKDLLSGLYFDQRNYSSLRHSKPTSAYYTRQSSSLYSDPLATYKSDRASPTANSGLLRSASLASLYNGGLYNPYGPRTPSECSYYSSRISSARSSPGFTNDDTASIVSSDRASRGRRESVVSAADYFSRSNRRGSVVSEVDDISIPDLSSLDEKSDKQYAENYTRPSSRNSASATTPLSGNSSRRGSGDTSSLIDPDTSLSELRDIYDLKDQIQDVEGRYMQGLKELKESLSEVEEKYKKAMVSNAQLDNEKNNLIYQVDTLKDVIEEQEEQMAEFYRENEEKSKELERQKHMCSVLQHKMEELKEGLRQRDELIEEKQRMQQKIDTMTKEVFDLQETLLWKDKKIGALEKQKEYIACLRNERDMLREELADLQETVKTGEKHGLVIIPDGTPNGDVSHEPVAGAITVVSQEAAQVLESAGEGPLDVRLRKLAGEKEELLSQIRKLKLQLEEERQKCSRNDGTVGDLAGLQNGSDLQFIEMQRDANRQISEYKFKLSKAEQDITTLEQSISRLEGQVLRYKTAAENAEKVEDELKAEKRKLQRELRTALDKIEEMEMTNSHLAKRLEKMKANRTALLAQQ [LRRFIP2] | 53.7 | -3.39 | -4.14 | 0.251 | 0.672 | 53.3
MGTPKPRILPWLVSQLDLGQLEGVAWVNKSRTRFRIPWKHGLRQDAQQEDFGIFQAWAEATGAYVPGRDKPDLPTWKRNFRSALNRKEGLRLAEDRSKDPHDPHKIYEFVNSGVGDFSQPDTSPDTNGGGSTSDTQEDILDELLGNMVLAPLPDPGPPSLAVAPEPCPQPLRSPSLDNPTPFPNLGPSENPLKRLLVPGEEWEFEVTAFYRGRQVFQQTISCPEGLRLVGSEVGDRTLPGWPVTLPDPGMSLTDRGVMSYVRHVLSCLGGGLALWRAGQWLWAQRLGHCHTYWAVSEELLPNSGHGPDGEVPKDKEGGVFDLGPFIVDLITFTEGSGRSPRYALWFCVGESWPQDQPWTKRLVMVKVVPTCLRALVEMARVGGASSLENTVDLHISNSHPLSLTSDQYKAYLQDLVEGMDFQGPGES [IRF3] | 51.7 | 0.111 | 1.23 | 0.174 | -0.0358 | 51.4
MGTRDDEYDYLFKVVLIGDSGVGKSNLLSRFTRNEFNLESKSTIGVEFATRSIQVDGKTIKAQIWDTAGQERYRAITSAYYRGAVGALLVYDIAKHLTYENVERWLKELRDHADSNIVIMLVGNKSDLRHLRAVPTDEARAFAEKNNLSFIETSALDSTNVEEAFKNILTEIYRIVSQKQIADRAAHDESPGNNVVDISVPPTTDGQKPNKLQCCQNL [RAB11B] | 57.5 | 0.344 | -0.699 | -0.0727 | 0.136 | 57.1
MGVEGCTKCIKYLLFVFNFVFWLAGGVILGVALWLRHDPQTTNLLYLELGDKPAPNTFYVGIYILIAVGAVMMFVGFLGCYGAIQESQCLLGTFFTCLVILFACEVAAGIWGFVNKDQIAKDVKQFYDQALQQAVVDDDANNAKAVVKTFHETLDCCGSSTLTALTTSVLKNNLCPSGSNIISNLFKEDCHQKIDDLFSGKLYLIGIAAIVVAVIMIFEMILSMVLCCGIRNSSVY [CD81] |  | 0.287 | -0.69 | -0.0908 | 0.0932 | 56.1
MGVWLNKDDYIRDLKRIILCFLIVYMAILVGTDQDFYSLLGVSKTASSREIRQAFKKLALKLHPDKNPNNPNAHGDFLKINRAYEVLKDEDLRKKYDKYGEKGLEDNQGGQYESWNYYRYDFGIYDDDPEIITLERREFDAAVNSGELWFVNFYSPGCSHCHDLAPTWRDFAKEVDGLLRIGAVNCGDDRMLCRMKGVNSYPSLFIFRSGMAPVKYHGDRSKESLVSFAMQHVRSTVTELWTGNFVNSIQTAFAAGIGWLITFCSKGGDCLTSQTRLRLSGMLDGLVNVGWMDCATQDNLCKSLDITTSTTAYFPPGATLNNKEKNSILFLNSLDAKEIYLEVIHNLPDFELLSANTLEDRLAHHRWLLFFHFGKNENSNDPELKKLKTLLKNDHIQVGRFDCSSAPDICSNLYVFQPSLAVFKGQGTKEYEIHHGKKILYDILAFAKESVNSHVTTLGPQNFPANDKEPWLVDFFAPWCPPCRALLPELRRASNLLYGQLKFGTLDCTVHEGLCNMYNIQAYPTTVVFNQSNIHEYEGHHSAEQILEFIEDLMNPSVVSLTPTTFNELVTQRKHNEVWMVDFYSPWCHPCQVLMPEWKRMARTLTGLINVGSIDCQQYHSFCAQENVQRYPEIRFFPPKSNKAYHYHSYNGWNRDAYSLRIWGLGFLPQVSTDLTPQTFSEKVLQGKNHWVIDFYAPWCGPCQNFAPEFELLARMIKGKVKAGKVDCQAYAQTCQKAGIRAYPTVKFYFYERAKRNFQEEQINTRDAKAIAALISEKLETLRNQGKRNKDEL [DNAJC10] | 55.4 | 3.17 | 4.65 | -0.125 | -0.000819 | 54.7
